Data published in paper PMC3404119.

What was measured:
Her1 (zebrafish) = assay: MITOMI (mechanically induced trapping of molecular interactions); GFP-tagged Her protein from wheat germ extract immobilised on the microfluidic chip surface with anti-GFP antibody and washed with PBS; mCherry-tagged protein expressed on chip in wheat germ extract with 250 nM Cy5-labelled DNA oligomer; 3 h at room temperature; slope of free against bound mCherry signal as relative affinity
Her1-GFP (zebrafish) = assay: MITOMI; details: PPARγ-mCherry present; MITOMI in wheat germ TnT SP6 expression extract, 3 h at room temperature; PBS wash of immobilized protein; DNA spotted with 1% BSA; salt and pH not stated
[1] = tested on: Her7 (coupled to chip, Fig 2D);Hes6-mCherry (zebrafish;zebrafish); assay: MITOMI; details: MITOMI in wheat germ TnT SP6 expression extract, 3 h at room temperature; PBS wash of immobilized protein; DNA spotted with 1% BSA; salt and pH not stated

| fold lower relative affinity than the Her1 homodimer (Her1-mCherry on Her1-GFP) (Her1 (zebrafish)) [fold] | Substance | binding signal (relative to seq 2) (Her1-GFP (zebrafish)) | binding signal (relative to seq 2) [1] |
| --- | --- | --- | --- |
| 3 | Her7 (natural protein) | – | – |
| 3 | MyoD (myogenic differentiation 1) (from UniProt Q90477 1-275) (natural protein) | – | – |
| – | seq 46 (control) | 0.0105 | 0.0131 |
| – | seq 47 (control) | 0.0105 | 0.0137 |
